Peptide text beside a SMILES is read from it.
Tests used:
[1] = Toxicity study of LGI1 peptide mimetic in vivo; conditions: preliminary in vivo studies; FIG. 1F
Description: LGI1 mimetic was delivered by daily intraperitoneal injection to C57/bl6 mice at high (100 ug/kg/day), medium (10 ug/kg/day) and low dose (1 ug/kg/day) for 30 days.

[2] = tested on: endocrine resistant LY2 cells; experiment: Motility assay, LY2 cells; type: cell-based; conditions: 5 nM, FIG. 1C/1E
Description: (§1) • For cell culture use Minimum Essential Medium-Eagle (EMEM; BioWhittaker, Product No. 12-611Q) containing the following supplements (=EMEM Complete Medium): 10% fetal calf serum (BioWhittaker, Product No. 14-503F), 1X penicillin/streptomycin solution (BioWhittaker, Product No. 17-602E), 1% L-glutamine (BioWhittaker, Product No. 17-605E), 1% non-essential amino acids (BioWhittaker, Product No. 13-114E) and 1% sodium pyruvate (BioWhittaker, Product No. 13-115E). • Split cells when they reach 60-80% confluency (every 2-3 days), diluting 1:5 to 1:10. • For cell motility, harvest cells with trypsin-versene mixture (BioWhittaker, Product No. 17-161F) and dilute into EMEM Complete Medium (warmed to 37° C.). For cells cultured in a T-75 flask, wash cells with 3 ml of trypsin. Add another 3 ml of trypsin and aspirate 2 ml. Allow cells to detach by incubating flask at 37° C. for 5 minutes and then add 9 ml of EMEM Complete Medium and centrifuge cells at 400×g for 5 minutes at room temperature. • Wash 3× with Serum-Free Culture Medium (warmed to 37° C.) (see Procedure section). • Adjust cell density to 10^4 cells/ml in EMEM serum-free medium and add 50 μl of the cell suspension to each well of a 96-well microplate (=500 cells/well). Cell motility is stimulated with 50 μl of 10% fetal bovine serum (FBS) diluted in EMEM serum-free medium. […]

[3] = tested on: endocrine resistant LetR cells; experiment: Motility assay, LetR cells; type: cell-based; conditions: 5 nM, FIG. 1C/1E
Description: as §1

MCF7 cells = experiment: Motility assay, MCF7 cells; type: cell-based; conditions: 5 nM, FIG. 1C
Description: as §1

LetR cells = experiment: Cellular differentiation in 3D culture, LetR cells; type: cell-based; conditions: LetR cells treated with LGI1; n=3; FIG. 1D
[4] = tested on: endocrine resistant LetR cells; experiment: Xenograft model of endocrine resistance; type: in vivo; conditions: FIG. 1G
Description: As ADAM22 expression has previously only been described in the central nervous system, a therapeutic directed against systemic ADAM22 has the potential to be highly specific for the breast and have low toxicity. The neuronal protein, LGI1 serves as a specific extracellular ligand for ADAM22^4. […] The Applicant has shown that treatment with recombinant LGI1 reduced cellular migration and restored differentiation in endocrine resistant cells in a similar manner to that observed with knockdown of ADAM22 (FIGS. 1C and D). A 22 amino acid peptide mimetic of LGI1 with a simple hairpin structure against the active binding domain of ADAM22 has been developed. […] In vivo studies have been undertaken to assess the efficacy of the LGI1 mimetic in reducing breast cancer burden in endocrine resistant breast cancer. […] This has significant advantage over previous methods described of detecting metastatic disease^9.

[5] = LetR cells in vivo, daily injection

With `CC[C@H](C)[C@H](NC(=O)[C@H](Cc1ccccc1)NC(=O)[C@H](CCCNC(=N)N)NC(=O)[C@@H](NC(=O)[C@H](CC(C)C)NC(=O)[C@H](CS)NC(=O)[C@@H](NC(=O)[C@H](Cc1ccc(O)cc1)NC(=O)[C@@H](NC(=O)[C@H](CC(=O)O)NC(=O)CNC(=O)[C@@H](N)CCCCN)C(C)C)[C@@H](C)CC)[C@@H](C)O)C(=O)NCC(=O)N[C@@H](CC(=O)O)C(=O)N[C@@H](CO)C(=O)N[C@@H](CCCCN)C(=O)N[C@H](C(=O)N[C@@H](CCSC)C(=O)N[C@@H](CCCCN)C(=O)N[C@@H](Cc1c[nH]c2ccccc12)C(=O)NCC(=O)NCC(=O)O)C(C)C` [LGI1 mimetic] (H-KGDVYICLTRFIGDSKVMKWGG-OH) the tolerability / toxicity [1] was “well tolerated with no toxicity observed”.

B1: LGI1: neuronal protein and known ADAM22 ligand LGI1 (SEQ ID NO: 1), GENBANK AAQ89244 (protein, listed as Homo sapiens)
chain: MESERSKRMGNACIPLKRIAYFLCLLSALLLTEGKKPAKPKCPAVCTCTKDNALCENARSIPRTVPPDVISLSFVRSGFTEISEGSFLFTPSLQLLLFTSNSFDVISDDAFIGLPHLEYLFIENNNIKSISRHTFRGLKSLIHLSLANNNLQTLPKDIFKGLDSLTNVDLRGNSFNCDCKLKWLVEWLGHTNATVEDIYCEGPPEYKKRKINSLSSKDFDCIITEFAKSQDLPYQSLSIDTFSYLNDEYVVIAQPFTGKCIFLEWDHVEKTFRNYDNITGTSTVVCKPIVIETQLYVIVAQLFGGSHIYKRDSFANKFIKIQDIEILKIRKPNDIETFKIENNWYFVVADSSKAGFTTIYKWNGNGFYSHQSLHAWYRDTDVEYLEIVRTPQTLRTPHLILSSSSQRPVIYQWNKATQLFTNQTDIPNMEDVYAVKHFSVKGDVYICLTRFIGDSKVMKWGGSSFQDIQRMPSRGSMVFQPLQINNYQYAILGSDYSFTQVYNWDAEKAKFVKFQELNVQAPRSFTHVSINKRNFLFASSFKGNTQIYKHVIVDLSA
modifications: (1)..(557) LGI1 protein
With B1 the cellular migration [2] was “significantly reduced cellular migration”, the cellular migration [3] was “significantly reduced cellular migration” and the cellular migration (MCF7 cells) was “no discernable effect”. The cellular differentiation (LetR cells) was “restored cellular differentiation”, the “cell proliferation in vivo” value [4, 5] was “inhibits” and the metastasis in vivo [4, 5] was “inhibits”. The tumour burden ([4]; xenograft model of endocrine resistance) was “significantly reduced tumour burden”.

Reference: patent publication US9944718B2, “ADAM22 for use as a prognostic variable, and target for therapy, of a metastatic breast cancer disease” (Royal College of Surgeons in Ireland, priority 2011, dated 2018)
